{"source": "patent US20250223319A1", "biological_target": "F HIV-clamp (respiratory syncytial virus)", "assay": "capture ELISA, 101F coat and MPE8 detection; antigen yield estimate, control"}
{"substance": "MPE8 (antibody)", "values": [{"measurement": "yield by MPE8 binding ELISA", "value": 10, "unit": "mg/L"}]}
